According to PMC12203913, “XPC-RAD23B enhances UV-DDB binding to DNA to facilitate lesion search in nucleotide excision repair” (Nucleic Acids Research, 2025):
Blank lines part the entries; values can stand above or below the molecule they belong to.

Assays:
[1] = target: T1, UV-DDB (DDB1-DDB2);XPC-RAD23B (Homo sapiens;Homo sapiens, UniProt Q16531;Q92466;Q01831;P54727 1-1140;1-427;1-940;1-409, |); assay: single-molecule DNA curtain; conditions: 0.2 nM UV-DDB, 0.4 nM XPC-RAD23B, 3-fold more at CPD sites than random sites, three CPDs around 33.5 kbp (33513-33630), EMSA: 50 mM Tris-HCl pH 7.5, 100 mM NaCl, 0.1 mg/ml BSA, 1 mM DTT, 23°C, 45 min, DNA curtains: 10 mM Tris-HCl pH 8.0, 1 mM EDTA, 0.16% BSA, 0-100 mM …
T1 sequence (Q16531 whole entry, chain 1 of 2): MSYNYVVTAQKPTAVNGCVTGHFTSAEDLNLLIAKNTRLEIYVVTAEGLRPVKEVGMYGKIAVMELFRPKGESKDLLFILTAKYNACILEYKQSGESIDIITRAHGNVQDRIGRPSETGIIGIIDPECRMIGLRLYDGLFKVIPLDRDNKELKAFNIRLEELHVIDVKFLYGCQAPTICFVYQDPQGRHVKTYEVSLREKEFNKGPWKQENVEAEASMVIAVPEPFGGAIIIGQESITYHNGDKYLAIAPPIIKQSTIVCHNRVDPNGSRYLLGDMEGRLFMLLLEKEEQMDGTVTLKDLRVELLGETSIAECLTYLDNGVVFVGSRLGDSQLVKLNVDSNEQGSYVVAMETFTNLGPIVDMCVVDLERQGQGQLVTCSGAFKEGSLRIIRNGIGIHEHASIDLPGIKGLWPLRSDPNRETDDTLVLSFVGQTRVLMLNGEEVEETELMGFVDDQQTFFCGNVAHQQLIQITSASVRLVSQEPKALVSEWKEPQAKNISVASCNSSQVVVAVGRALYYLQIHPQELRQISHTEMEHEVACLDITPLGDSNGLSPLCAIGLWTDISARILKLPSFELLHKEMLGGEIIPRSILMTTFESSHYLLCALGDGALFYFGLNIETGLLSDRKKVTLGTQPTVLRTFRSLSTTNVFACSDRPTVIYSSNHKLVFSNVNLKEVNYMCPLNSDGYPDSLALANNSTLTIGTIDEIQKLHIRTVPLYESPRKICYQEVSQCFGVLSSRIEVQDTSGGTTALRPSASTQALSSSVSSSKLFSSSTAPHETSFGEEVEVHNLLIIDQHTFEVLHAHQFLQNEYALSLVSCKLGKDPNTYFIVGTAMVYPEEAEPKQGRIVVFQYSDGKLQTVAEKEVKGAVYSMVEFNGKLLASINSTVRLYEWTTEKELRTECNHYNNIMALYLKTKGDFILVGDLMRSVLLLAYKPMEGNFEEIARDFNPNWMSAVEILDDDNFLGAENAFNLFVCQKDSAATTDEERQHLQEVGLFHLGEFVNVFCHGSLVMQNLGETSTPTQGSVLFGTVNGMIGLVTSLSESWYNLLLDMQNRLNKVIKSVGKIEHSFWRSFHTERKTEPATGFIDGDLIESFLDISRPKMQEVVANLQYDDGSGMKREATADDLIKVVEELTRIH
T1 sequence (Q92466 whole entry, chain 2 of 2): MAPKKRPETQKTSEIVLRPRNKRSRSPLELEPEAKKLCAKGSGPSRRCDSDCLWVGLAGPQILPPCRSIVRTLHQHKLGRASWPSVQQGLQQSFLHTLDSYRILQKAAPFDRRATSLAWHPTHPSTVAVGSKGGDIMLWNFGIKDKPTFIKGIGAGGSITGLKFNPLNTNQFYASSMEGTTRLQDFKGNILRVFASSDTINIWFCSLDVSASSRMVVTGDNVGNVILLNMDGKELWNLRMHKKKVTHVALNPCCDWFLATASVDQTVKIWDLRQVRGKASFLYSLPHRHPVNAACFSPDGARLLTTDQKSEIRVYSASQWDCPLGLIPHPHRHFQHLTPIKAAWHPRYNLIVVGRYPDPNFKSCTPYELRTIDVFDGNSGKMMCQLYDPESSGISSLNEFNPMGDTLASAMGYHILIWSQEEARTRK

[2] = target: UV-DDB (heterodimer of DDB1 and DDB2) (human, UniProt Q16531 1-1140; Q92466 1-427); assay: cell-based or functional assay
Sequence of UV-DDB (heterodimer of DDB1 and DDB2) (Q16531 whole entry, chain 1 of 2): as the sequence (Q16531 whole entry, chain 1 of 2) above
Sequence of UV-DDB (heterodimer of DDB1 and DDB2) (Q92466 whole entry, chain 2 of 2): as the sequence (Q92466 whole entry, chain 2 of 2) above

[3] = target: T1, UV-DDB (DDB1-DDB2);XPC-RAD23B; assay: EMSA; 15 nM XPC-RAD23B, UV-DDB titrated, 10 nM DNA; co-bound band confirmed by native western; EMSA: 50 mM Tris-HCl pH 7.5, 100 mM NaCl, 0.1 mg/ml BSA, 1 mM DTT, 23°C, 45 min; DNA curtains: 10 mM Tris-HCl pH 8.0, 1 mM EDTA, 0.16% BSA, 1 mM DTT, 0-100 mM NaCl, 23°C; conditions: protein: recombinant;recombinant; tags: 3xHA at N-terminus of DDB1 (1xFLAG removed by PreScission);3xFLAG at N-terminus of XPC; copies: 1;1;1;1; label: 5'-FAM on strand 2; blunt; T21 of strand 1 faces T of strand 2 (T-T mismatch at the CPD)
[4] = target: T1, UV-DDB (DDB1-DDB2);XPC-RAD23B; assay: EMSA; 2 nM XPC-RAD23B, UV-DDB titrated, 10 nM DNA; EMSA: 50 mM Tris-HCl pH 7.5, 100 mM NaCl, 0.1 mg/ml BSA, 1 mM DTT, 23°C, 45 min; DNA curtains: 10 mM Tris-HCl pH 8.0, 1 mM EDTA, 0.16% BSA, 1 mM DTT, 0-100 mM NaCl, 23°C; conditions: protein: recombinant;recombinant; tags: 3xHA at N-terminus of DDB1 (1xFLAG removed by PreScission);3xFLAG at N-terminus of XPC; copies: 1;1;1;1; label: 5'-FAM on strand 2; blunt; T21 of strand 1 faces T of strand 2 (T-T mismatch at the CPD)
[5] = target: XPC-RAD23B (Homo sapiens, UniProt Q01831;P54727 1-940;1-409); assay: EMSA; 4 nM DNA, no competitor; EMSA: 50 mM Tris-HCl pH 7.5, 100 mM NaCl, 0.1 mg/ml BSA, 1 mM DTT, 23°C, 45 min; DNA curtains: 10 mM Tris-HCl pH 8.0, 1 mM EDTA, 0.16% BSA, 1 mM DTT, 0-100 mM NaCl, 23°C; conditions: protein: recombinant, tags: 3xFLAG at N-terminus of XPC, copies: 1;1, label: 5'-FAM on strand 2, blunt
[6] = target: UV-DDB (DDB1-DDB2) (Homo sapiens, UniProt Q16531;Q92466 1-1140;1-427); assay: as above; conditions: protein: recombinant, tags: 3xHA at N-terminus of DDB1 (1xFLAG removed by PreScission), copies: 1;1, label: 5'-FAM on strand 2, blunt
Sequence of UV-DDB (DDB1-DDB2) (Q16531 whole entry, chain 1 of 2): as the sequence (Q16531 whole entry, chain 1 of 2) above
Sequence of UV-DDB (DDB1-DDB2) (Q92466 whole entry, chain 2 of 2): as the sequence (Q92466 whole entry, chain 2 of 2) above

[7] = target: T1, UV-DDB (DDB1-DDB2);XPC-RAD23B; assay: EMSA; 2 nM XPC-RAD23B increases UV-DDB binding; EMSA: 50 mM Tris-HCl pH 7.5, 100 mM NaCl, 0.1 mg/ml BSA, 1 mM DTT, 23°C, 45 min; DNA curtains: 10 mM Tris-HCl pH 8.0, 1 mM EDTA, 0.16% BSA, 1 mM DTT, 0-100 mM NaCl, 23°C; conditions: protein: recombinant;recombinant; tags: 3xHA at N-terminus of DDB1 (1xFLAG removed by PreScission);3xFLAG at N-terminus of XPC; copies: 1;1;1;1; label: 5'-FAM on strand 2; blunt
[8] = T21 of strand 1 faces T of strand 2 (T-T mismatch at the CPD)

Molecule: 3x CPD λ-DNA (λ-I3)
- binding signal (fold bound UV-DDB vs no XPC-RAD23B) [1]: 5.5

- EMSA: binding of UV-DDB (0-25 nM) to DNA with 15 nM XPC-RAD23B against none [2]: ~4 fold
B1: XPC-RAD23B (complex, human)
chain 1: MARKRAAGGEPRGRELRSQKSKAKSKARREEEEEDAFEDEKPPKKSLLSKVSQGKRKRGCSHPGGSADGPAKKKVAKVTVKSENLKVIKDEALSDGDDLRDFPSDLKKAHHLKRGATMNEDSNEEEEESENDWEEVEELSEPVLGDVRESTAFSRSLLPVKPVEIEIETPEQAKTRERSEKIKLEFETYLRRAMKRFNKGVHEDTHKVHLLCLLANGFYRNNICSQPDLHAIGLSIIPARFTRVLPRDVDTYYLSNLVKWFIGTFTVNAELSASEQDNLQTTLERRFAIYSARDDEELVHIFLLILRALQLLTRLVLSLQPIPLKSATAKGKKPSKERLTADPGGSSETSSQVLENHTKPKTSKGTKQEETFAKGTCRPSAKGKRNKGGRKKRSKPSSSEEDEGPGDKQEKATQRRPHGRERRVASRVSYKEESGSDEAGSGSDFELSSGEASDPSDEDSEPGPPKQRKAPAPQRTKAGSKSASRTHRGSHRKDPSLPAASSSSSSSKRGKKMCSDGEKAEKRSIAGIDQWLEVFCEQEEKWVCVDCVHGVVGQPLTCYKYATKPMTYVVGIDSDGWVRDVTQRYDPVWMTVTRKCRVDAEWWAETLRPYQSPFMDREKKEDLEFQAKHMDQPLPTAIGLYKNHPLYALKRHLLKYEAIYPETAAILGYCRGEAVYSRDCVHTLHSRDTWLKKARVVRLGEVPYKMVKGFSNRARKARLAEPQLREENDLGLFGYWQTEEYQPPVAVDGKVPRNEFGNVYLFLPSMMPIGCVQLNLPNLHRVARKLDIDCVQAITGFDFHGGYSHPVTDGYIVCEEFKDVLLTAWENEQAVIERKEKEKKEKRALGNWKLLAKGLLIRERLKRRYGPKSEAAAPHTDAGGGLSSDEEEGTSSQAEAARILAASWPQNREDEEKQKLKGGPKKTKREKKAAASHLFPFEQL
chain 2: MQVTLKTLQQQTFKIDIDPEETVKALKEKIESEKGKDAFPVAGQKLIYAGKILNDDTALKEYKIDEKNFVVVMVTKPKAVSTPAPATTQQSAPASTTAVTSSTTTTVAQAPTPVPALAPTSTPASITPASATASSEPAPASAAKQEKPAEKPAETPVATSPTATDSTSGDSSRSNLFEDATSALVTGQSYENMVTEIMSMGYEREQVIAALRASFNNPDRAVEYLLMGIPGDRESQAVVDPPQAASTGAPQSSAVAAAAATTTATTTTTSSGGHPLEFLRNQPQFQQMRQIIQQNPSLLPALLQQIGRENPQLLQQISQHQEHFIQMLNEPVQEAGGQGGGGGGGSGGIAEAGSGHMNYIQVTPQEKEAIERLKALGFPEGLVIQAYFACEKNENLAANFLLQQNFDED

B2: CPD-containing 39 bp DNA (λ-I3_CPD / λ-I3_comp_FAM) (dsDNA)
DNA 1: TGCATGCGGCCGCTCTTCCCTTGGTGCGATCGCTCTTCG
DNA 2: CGAAGAGCGATCGCACCATGGGAAGAGCGGCCGCATGCA
modifications: cyclobutane pyrimidine dimer T21^T22 in strand 1; 5'-phosphate on strand 1
- binding signal [3]: ~4 fold UV-DDB binding vs no XPC-RAD23B
- binding signal [4]: 2.5 fold UV-DDB affinity vs no XPC-RAD23B
- Kd [5, 8]: ~7 nM
- Kd [6, 8]: ~5 nM

B3: undamaged 39 bp DNA (λ-I3_Dup / λ-I3_comp_FAM) (dsDNA)
DNA 1: TGCATGCGGCCGCTCTTCCCATGGTGCGATCGCTCTTCG
DNA 2: CGAAGAGCGATCGCACCATGGGAAGAGCGGCCGCATGCA
modifications: 5'-phosphate on strand 1
- binding result [7]: binds
- Kd [5]: ~9 nM
- Kd [6]: ~26 nM
